Where two headings read alike, the source gives them in different places.
Columns and labels:
[1] = molecular target: PABP1 (Homo sapiens) (UniProt P11940); conditions: cited from earlier work
[2] = molecular target: WT NS1-RBD (Influenza A virus A/Udorn/307/1972 …, UniProt P03495 1-73); assay: fluorescence anisotropy
[3] = molecular target: T1, PABP1 (human, UniProt P11940 1-636); assay: EMSA
[4] = molecular target: T1, PABP1; assay: EMSA; remark: listed apart in the source
[5] = molecular target: T1, PABP1; assay: EMSA; remark: listed apart in the source

T1 sequence (P11940 whole entry): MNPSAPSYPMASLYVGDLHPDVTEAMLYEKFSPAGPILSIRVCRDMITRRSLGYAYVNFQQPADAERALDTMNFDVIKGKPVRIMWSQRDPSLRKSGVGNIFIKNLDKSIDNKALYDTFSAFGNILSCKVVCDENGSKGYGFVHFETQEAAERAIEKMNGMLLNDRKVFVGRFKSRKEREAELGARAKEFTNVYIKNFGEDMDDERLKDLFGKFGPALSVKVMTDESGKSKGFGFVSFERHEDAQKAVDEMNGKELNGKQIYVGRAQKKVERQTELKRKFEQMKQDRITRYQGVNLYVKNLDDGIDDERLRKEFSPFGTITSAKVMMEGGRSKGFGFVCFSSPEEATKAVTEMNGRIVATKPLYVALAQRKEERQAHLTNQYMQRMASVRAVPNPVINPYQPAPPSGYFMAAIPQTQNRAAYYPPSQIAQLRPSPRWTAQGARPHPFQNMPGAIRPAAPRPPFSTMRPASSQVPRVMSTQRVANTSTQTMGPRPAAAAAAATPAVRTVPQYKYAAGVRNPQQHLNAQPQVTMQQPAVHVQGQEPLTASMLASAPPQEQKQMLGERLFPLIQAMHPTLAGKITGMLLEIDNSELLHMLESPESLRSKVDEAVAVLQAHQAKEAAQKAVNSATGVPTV
Chain of WT NS1-RBD (P03495 1-73): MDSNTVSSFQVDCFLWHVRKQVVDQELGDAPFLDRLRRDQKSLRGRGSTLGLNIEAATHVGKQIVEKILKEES
Chain of PABP1 (Homo sapiens) (P11940 whole entry): as the sequence (P11940 whole entry) above

NS1 (from UniProt Q8QPI8)
Kd [1]: 20 nM

B1: dsRK1 (dsRNA)
RNA 1: CCAUCCUCUACAGGCG
RNA 2: CGCCUGUAGAGGAUGG
Kd [2]: 76 ± 9 nM

AAAAAAAAAAAAAAAAAA (ssRNA) [poly(A)18]
binding result [3]: binds

GCUAUCCAGAUUCUGAUU (ssRNA) [ssCR1]
binding result [4]: no binding

B2: poly(A)60 (ssRNA)
RNA: AAAAAAAAAAAAAAAAAAAAAAAAAAAAAAAAAAAAAAAAAAAAAAAAAAAAAAAAAAAA
binding result [5]: binds
